The text below walks through data of patent US20180086826A1.

The target in test [1] is I83E trastuzumab memAb Fab. The test is described as follows: SPR, 37 °C. (In general: Surface plasmon resonance follows binding to a sensor surface in real time, without labels.)
Test [2] concerns the target meditope-enabled Trastuzumab Fab (original, Ile83). The test is described as follows: SPR, 37 °C, immobilized memAb.
Test [3] deals with I83E trastuzumab memAb Fab. The test is described as follows: SPR, 37 °C; against the original meditope on the original trastuzumab memAb Fab.
For test [4], the target named is meditope-enabled Trastuzumab Fab (original, Ile83). The description is as above.
Another test addresses HER2 (UniProt P04626). The test is described as follows: SPR, immobilized HER2, 25 °C.
Test [5] addresses meditope-enabled Trastuzumab Fab (original, Ile83). The test can be described thus: SPR, 37 °C.

pKd: −log10 of the molar value.

As a reminder, the pKd is the negative decadic logarithm of the Kd, by convention in mol/L. 5-diphenyl meditope (peptide): the pKd in test [1] is 9.07; in test [2], 7.39. In addition, the τ1/2 in test [1] was found to be 2400 s; in test [2], 60 s. The fold increase in affinity in test [3] stood at 1160 fold; in test [4] it was 25 fold.
Substance I83E trastuzumab memAb Fab showed a pKd in the test with HER2 of 10.36.
A word on the koff: it is the rate constant with which the complex falls apart. Lower therefore signals a long-lived complex. With original meditope (peptide), the negative logarithm of the Kd (pKd) was 7.42 in test [1] and 6.00 in test [2]. The substance further came in with a koff in test [1] of 0.0025 s⁻¹. The figures for the τ1/2 in test [1] and in test [5] were 280 s and 16 s, respectively. In test [3], this substance yielded a fold increase in affinity of 25 fold.
